Data reported in patent US20030186258.

T1: Z-L-tyrosine-L-lysine-L-arginine-p-nitroanilide
T1 chain: YKR

B1: ss-Kex1-C600 (soluble secreted Kex1 endoprotease of Kluyveromyces lactis truncated at amino acid 600) (protein)
chain: LPIGDSSMEQIQNARILFNISDPLFDQQWHLINPNYPGNDVNVTGLWKENITGYGVVAALVDDGLDYENEDLKDNFCVEGSWDFNDNNPLPKPRLKDDYHGTRCAGEIAAFRNDICGVGVAYNSKVSGIRILSGQITAEDEAASLIYGLDVNDIYSCSWGPSDDGKTMQAPDTLVKKAIIKGVTEGRDAKGALYVFASGNGGMFGDSCNFDGYTNSIFSITVGAIDWKGLHPPYSESCSAVMVVTYSSGSGNYIKTTDLDEKCSNTHGGTSAAAPLAAGIYTLVLEANPNLTWRDVQYLSILSSEEINPHDGKWQDTAMGKRYSHTYGFGKLDAYNIVHMAKSWINVNPQGWLYLPTIVEKQSISNSDEVIESTVSVSAEEFKQNNLKRLEHVTVTVDIDAPYRGHVLVDLISPDGVTSTLATARRLDKNRYGFQNWTFMSVAHWGSSGVGSWKLKVKSTHDNEIVTLKSWRLKMFGETIDAKKAKVISYGNDKEDAE
B2: ss-Kex2-C613 (soluble secreted Kex2 endoprotease of Saccharomyces cerevisiae truncated at amino acid 613) (protein)
chain: APPMDSSLLPVKEAEDKLSINDPLFERQWHLVNPSFPGSDINVLDLWYNNITGAGVVAAIVDDGLDYENEDLKDNFCAEGSWDFNDNTNLPKPRLSDDYHGTRCAGEIAAKKGNNFCGVGVGYNAKISGIRILSGDITTEDEAASLIYGLDVNDIYSCSWGPADDGRHLQGPSDLVKKALVKGVTEGRDSKGAIYVFASGNGGTRGDNCNYDGYTNSIYSITIGAIDHKDLHPPYSEGCSAVMAVTYSSGSGEYIHSSDINGRCSNSHGGTSAAAPLAAGVYTLLLEANPNLTWRDVQYLSILSAVGLEKNADGDWRDSAMGKKYSHRYGFGKIDAHKLIEMSKTWENVNAQTWFYLPTLYVSQSTNSTEETLESVITISEKSLQDANFKRIEHVTVTVDIDTEIRGTTTVDLISPAGIISNLGVVRPRDVSSEGFKDWTFMSVAHWGENGVGDWKIKVKTTENGHRIDFHSWRLKLFGESIDSSKTETFVFGNDKEEVE

Tests used:
[1] = biological target: T1, Z-L-tyrosine-L-lysine-L-arginine-p-nitro …
[2] = biological target: fusion protein (peptide portion)-(Lys-Arg)-(h-GH), P01241
Sequence of fusion protein (peptide portion)-(Lys-Arg)-(h-GH), P01241 (P01241 whole entry, looked up, the tested form may be a part): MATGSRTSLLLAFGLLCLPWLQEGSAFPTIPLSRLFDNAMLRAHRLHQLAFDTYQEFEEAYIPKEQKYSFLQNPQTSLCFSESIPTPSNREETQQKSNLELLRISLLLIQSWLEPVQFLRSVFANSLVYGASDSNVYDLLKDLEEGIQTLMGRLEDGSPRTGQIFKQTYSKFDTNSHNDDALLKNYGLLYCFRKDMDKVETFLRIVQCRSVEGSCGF

Protein	KM [1] [µM]	kcat [1] [s⁻¹]	kcat/KM (µM^-1 × min^-1) [1]	specific activity [1]	reaction yield of hydrolysis (RP-HPLC) [2]	specificity of the hydrolysis (NH2-terminal sequence of the reaction product) [2]
B1	61.4	3070	3000	a specific activity of approximately 100 U/mg	a reaction yield higher than 95%	gave the expected sequence for h-GH
B2	56.8	2280	12400			
